T1: VchI (Vibrio cholerae)
T1 chain: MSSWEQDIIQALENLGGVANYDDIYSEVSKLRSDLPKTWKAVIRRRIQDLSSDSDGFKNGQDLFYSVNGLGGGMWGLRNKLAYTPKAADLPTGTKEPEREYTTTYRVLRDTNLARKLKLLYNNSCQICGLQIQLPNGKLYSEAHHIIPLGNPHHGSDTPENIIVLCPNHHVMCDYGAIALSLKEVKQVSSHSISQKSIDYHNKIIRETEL

B1: 60bp-1 (dsDNA)
DNA 1: AGAAGCAGGCCATTATCGCCGGCATGGCGGCCGACGCGCTGGGCTACGTCTTGCTGGCGT
DNA 2: ACGCCAGCAAGACGTAGCCCAGCGCGTCGGCCGCCATGCCGGCGATAATGGCCTGCTTCT
modifications: N6-methyladenine in any context (M.EcoGII)
B2: 60bp-2 (dsDNA)
DNA 1: GGGCTACGTCTTGCTGGCGTTCGCGACGCGAGGCTGGATGGCCTTCCCCATTATGATTCT
DNA 2: AGAATCATAATGGGGAAGGCCATCCAGCCTCGCGTCGCGAACGCCAGCAAGACGTAGCCC
modifications: N6-methyladenine in any context (M.EcoGII)
B3: 60bp-4 (dsDNA)
DNA 1: GGATGCCCGCGTTGCAGGCCATGCTGTCCAGGCAGGTAGATGACGACCATCAGGGACAGC
DNA 2: GCTGTCCCTGATGGTCGTCATCTACCTGCCTGGACAGCATGGCCTGCAACGCGGGCATCC
modifications: N6-methyladenine in any context (M.EcoGII)
B4: 60bp-3 (dsDNA)
DNA 1: GCCTTCCCCATTATGATTCTTCTCGCTTCCGGCGGCATCGGGATGCCCGCGTTGCAGGCC
DNA 2: GGCCTGCAACGCGGGCATCCCGATGCCGCCGGAAGCGAGAAGAATCATAATGGGGAAGGC
modifications: N6-methyladenine in any context (M.EcoGII)
B5: 60bp-7 (dsDNA)
DNA 1: CGGCGATTTATGCCGCCTCGGCGAGCACATGGAACGGGTTGGCATGGATTGTAGGCGCCG
DNA 2: CGGCGCCTACAATCCATGCCAACCCGTTCCATGTGCTCGCCGAGGCGGCATAAATCGCCG
modifications: N6-methyladenine in any context (M.EcoGII)
B6: 60bp-5 (dsDNA)
DNA 1: TGACGACCATCAGGGACAGCTTCAAGGATCGCTCGCGGCTCTTACCAGCCTAACTTCGAT
DNA 2: ATCGAAGTTAGGCTGGTAAGAGCCGCGAGCGATCCTTGAAGCTGTCCCTGATGGTCGTCA
modifications: N6-methyladenine in any context (M.EcoGII)
B7: 60bp-2-V (dsDNA)
DNA 1: B2 DNA 1 with G28T, C29T, G30T, A31T, G32T
DNA 2: B2 DNA 2 with C29A, T30A, C31A, G32A, C33A
modifications: N6-methyladenine in any context (M.EcoGII)
B8: GCGAT (dsDNA)
DNA 1: B2 DNA 1 with G32T
DNA 2: B2 DNA 2 with C29A
modifications: N6-methyladenine in any context (M.EcoGII)
B9: GCTAG (dsDNA)
DNA 1: B2 DNA 1 with G30T
DNA 2: B2 DNA 2 with C31A
modifications: N6-methyladenine in any context (M.EcoGII)
B10: GCGAC (dsDNA)
DNA 1: B2 DNA 1 with G32C
DNA 2: B2 DNA 2 with C29G
modifications: N6-methyladenine in any context (M.EcoGII)
B11: TCGAG (dsDNA)
DNA 1: B2 DNA 1 with G28T
DNA 2: B2 DNA 2 with C33A
modifications: N6-methyladenine in any context (M.EcoGII)
B12: GAGAG (dsDNA)
DNA 1: B2 DNA 1 with C29A
DNA 2: B2 DNA 2 with G32T
modifications: N6-methyladenine in any context (M.EcoGII)
B13: GCGAA (dsDNA)
DNA 1: B2 DNA 1 with G32A
DNA 2: B2 DNA 2 with C29T
modifications: N6-methyladenine in any context (M.EcoGII)
B14: CCGAG (dsDNA)
DNA 1: B2 DNA 1 with G28C
DNA 2: B2 DNA 2 with C33G
modifications: N6-methyladenine in any context (M.EcoGII)
B15: GTGAG (dsDNA)
DNA 1: B2 DNA 1 with C29T
DNA 2: B2 DNA 2 with G32A
modifications: N6-methyladenine in any context (M.EcoGII)
B16: GCAAG (dsDNA)
DNA 1: B2 DNA 1 with G30A
DNA 2: B2 DNA 2 with C31T
modifications: N6-methyladenine in any context (M.EcoGII)
B17: GGGAG (dsDNA)
DNA 1: B2 DNA 1 with C29G
DNA 2: B2 DNA 2 with G32C
modifications: N6-methyladenine in any context (M.EcoGII)
B18: GCCAG (dsDNA)
DNA 1: B2 DNA 1 with G30C
DNA 2: B2 DNA 2 with C31G
modifications: N6-methyladenine in any context (M.EcoGII)
B19: 59bp-GAG (dsDNA)
DNA 1: TTTTTTTTTTTTTTTTTTTTTTTTTTTTGAGTTTTTTTTTTTTTTTTTTTTTTTTTTTT
DNA 2: AAAAAAAAAAAAAAAAAAAAAAAAAAAACTCAAAAAAAAAAAAAAAAAAAAAAAAAAAA
modifications: N6-methyladenine at A of GAG (position 30, printed M6A); legend says M.EcoGII-methylated
B20: ss-59nt-GAG (ssDNA)
DNA: B19 DNA 1
modifications: N6-methyladenine at A of GAG (position 30)
B21: 60bp-7-V (dsDNA)
DNA 1: B5 DNA 1 with G21T, C22T, G23T, A24T, G25T
DNA 2: B5 DNA 2 with C36A, T37A, C38A, G39A, C40A
modifications: N6-methyladenine in any context (M.EcoGII)

Numbering of substitutions follows the chain as printed. In names and notes the source's numbering stands.

In one series the target is T1, VchI. Description: EMSA. (Mobility shift assays separate free from complexed probe on a gel.)
As to B1, the binding result is listed as “no binding”.

For the molecule B2, the binding result is given as “binds”.

In the case of B3, the binding result is given as “no binding”.

For the molecule B4, the binding result is “binds”.

Consider B5, for which the binding result was “binds”.

For the molecule B6, the binding result is given as “binds”.

For the next series, the target named is T1, VchI. Put plainly: EMSA. This is another data set of the same source.
B7: the binding result is “no binding”.

For B8, the binding result is “no binding”.

Turning to B9, the binding result was “no binding”.

On to B10, for which the binding result was “no binding”.

B11: the binding result was “binds”.

For B12, the binding result was “binds”.

On to B13, for which the binding result is on record as “no binding”.

On to B14, for which the binding result is on record as “binds”.

B15: the binding result was “binds”.

In the case of B16, the binding result was “no binding”.

For the molecule B17, the binding result was “binds”.

With B18, the binding result is reported as “no binding”.

B19: the binding result is reported as “binds”.

Turning to B20, the binding result is on record as “no binding”.

For B21, the binding result is “binds”.

The values are drawn from publication doi:10.1101/2025.05.22.655678.
